This is an account of results in patent publication US20040086503A1 (Amgen, published 2004).

The target of one experiment is COS7 IGF-IR (old world monkey (COS7 cells)). In words: cell-based or functional assay.
A further experiment has as its target Rhesus IGF-IR (rhesus, UniProt I2CWY3 31-736; I2CWY3 741-1367). In words: cell-based or functional assay.
Experiment [1] deals with T1, human IGF-IR on cells (human, UniProt P08069 31-1367). Description: cell-based or functional assay.
A further experiment addresses T2, canine IGF-IR (canine, UniProt A0A8I3MER7 10-1344).
T2 construct: whole, on cells
In words: immunoprecipitation and Western blot on cells. Here is the method:
(§1) The samples prepared as described above were then analyzed by Western blot. We loaded 12 μl of each sample per lane on 4-10% gradient Novex™ gels run with 1× MES buffer (Novex™). Gels were run at 150V for 1 hour or at 200V for approximately 30 minutes. We then transferred the gel to a membrane in Novex™ transfer buffer with 10% methanol either overnight at 100 mA or for 1-1.5 hours at 250 mA. We then allowed the membrane to dry completely and blocked at room temperature with TBS (Tris-buffered saline pH 8.0) containing Superblock (Pierce Chemical Co.). We added the IGF-IR blotting antibody SC713 (Santa Cruz) to detect immunoprecipitated IGF-IR.

A further experiment deals with guinea pig IGF-IR (guinea pig, UniProt H0V5D0 31-736; H0V5D0 741-1367). In words: immunoprecipitation and Western blot on cells. Here is the method:
as §1

Another experiment addresses T3, rabbit IGF-IR (rabbit, UniProt G1TLR2 31-1366).
T3 construct: whole, on cells
In words: immunoprecipitation and Western blot on cells. The method, then: as §1

The target in experiment [2] is T1, human IGF-IR on cells. In words: inhibition of [125I]-IGF-I binding to IGF-IR-transfected NIH-3T3 cells. The method, then:
We plated IGF-IR-transfected NIH-3T3 cells (5×10⁴/ml) in 100 μl of DMEM high glucose media supplemented with L-glutamine (0.29 mg/ml), 10% heat-inactivated FBS, and 500 μg/ml each of geneticin, penicillin and streptomycin in 96-well U-bottom plates. We then incubated the plates at 37° C., 5% CO₂ overnight to allow cells to attach. We then decanted the media from the plates and replaced it with 100 μl fresh media per well. For testing, we diluted antibodies in assay media (DMEM high glucose media supplemented with L-glutamine, 10% heat-inactivated FBS, 200 μg/ml BSA and 500 μg/ml each of geneticin, penicillin and streptomycin) to the desired final concentration and added 50 μl per well. All samples were performed in triplicate. We then incubated the plates at 37° C. for ten minutes. […] We incubated the plates for 10 minutes at 37° C., decanted the media by blotting gently onto paper towels and washed twice with assay media. We then lysed the cells by adding 50 μl 0.1 N NaOH, 0.1% SDS and shaking the plates for five minutes at room temperature. We then transferred the samples to a scintillation plate, added 150 μl OptiPhase Supermix and read the signal on a Wallac Micro-Beta counter.

The target of the next experiment is T4, cynomologous IGF-IR (cynomologous).
T4 construct: whole, on cells; also called IGF-IR of cynomologous cells
Description: flow cytometry, biotinylated antibody on cynomologous cells, streptavidin-RPE. The method, then:
We performed FACS analysis to determine the affinity of the antibodies of the invention for IGF-IR from other animals, particularly the old world monkeys described above. We incubated aliquots of human and monkey cells (5×10⁵) for 1 hour on ice with increasing concentrations of biotinylated anti-IGF-IR antibodies of the invention or with a biotinylated anti-keyhole limpet hemocyanin (KLH) antibody (Abgenix) as a negative control. We then incubated the samples for 30 minutes on ice with steptavidin-conjugated RPE (phycoerythrin). We measured binding by flow cytometry and analyzed the histograms of fluorescence intensity (Fl2-H) versus cell number (Counts) using CellQuest software. We calculated binding (Kd) for each antibody from graphs of mean fluorescence intensity versus antibody concentration. In most experiments, we measured binding in cultured human MCF-7 cells and either rhesus or cynomologous tissue culture cells. We controlled for depletion of the antibody by measuring binding over a range of cell concentrations.

T2 sequence (A0A8I3MER7 entry or part of it): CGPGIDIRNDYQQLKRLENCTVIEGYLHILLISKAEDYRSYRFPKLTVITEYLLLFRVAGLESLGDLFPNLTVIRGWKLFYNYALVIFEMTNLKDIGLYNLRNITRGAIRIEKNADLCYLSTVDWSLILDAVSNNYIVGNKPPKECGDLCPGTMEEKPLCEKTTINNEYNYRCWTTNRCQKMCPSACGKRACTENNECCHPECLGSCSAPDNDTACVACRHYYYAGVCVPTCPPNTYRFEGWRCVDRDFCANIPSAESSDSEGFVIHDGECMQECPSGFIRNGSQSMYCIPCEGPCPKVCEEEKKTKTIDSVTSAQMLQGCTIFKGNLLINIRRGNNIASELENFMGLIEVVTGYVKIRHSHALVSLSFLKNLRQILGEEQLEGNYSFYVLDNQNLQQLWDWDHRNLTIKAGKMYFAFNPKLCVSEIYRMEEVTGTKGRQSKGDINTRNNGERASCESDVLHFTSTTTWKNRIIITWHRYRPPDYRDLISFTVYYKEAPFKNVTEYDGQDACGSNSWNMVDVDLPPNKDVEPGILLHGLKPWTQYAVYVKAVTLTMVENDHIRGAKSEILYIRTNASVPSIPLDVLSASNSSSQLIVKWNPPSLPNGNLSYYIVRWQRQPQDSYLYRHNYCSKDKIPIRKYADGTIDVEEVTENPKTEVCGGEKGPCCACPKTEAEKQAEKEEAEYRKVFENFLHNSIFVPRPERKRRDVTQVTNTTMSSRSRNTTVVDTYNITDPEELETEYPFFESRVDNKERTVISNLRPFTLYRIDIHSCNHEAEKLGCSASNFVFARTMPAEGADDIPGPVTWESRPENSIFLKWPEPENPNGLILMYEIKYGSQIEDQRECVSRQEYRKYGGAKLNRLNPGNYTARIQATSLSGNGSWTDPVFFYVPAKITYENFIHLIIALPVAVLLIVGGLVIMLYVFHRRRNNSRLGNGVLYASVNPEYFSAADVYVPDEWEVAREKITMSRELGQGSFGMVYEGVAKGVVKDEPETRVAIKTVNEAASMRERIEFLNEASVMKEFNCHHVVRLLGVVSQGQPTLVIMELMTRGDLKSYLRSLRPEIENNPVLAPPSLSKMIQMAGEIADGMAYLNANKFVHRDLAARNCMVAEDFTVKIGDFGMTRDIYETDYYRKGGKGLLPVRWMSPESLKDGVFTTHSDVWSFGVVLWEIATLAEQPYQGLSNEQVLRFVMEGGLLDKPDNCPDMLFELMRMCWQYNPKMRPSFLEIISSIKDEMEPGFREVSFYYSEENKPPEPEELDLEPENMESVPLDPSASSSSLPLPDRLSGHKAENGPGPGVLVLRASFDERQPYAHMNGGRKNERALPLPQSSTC
Chain of guinea pig IGF-IR (alpha, as listed by the source limits assumed, chain 1 of 2): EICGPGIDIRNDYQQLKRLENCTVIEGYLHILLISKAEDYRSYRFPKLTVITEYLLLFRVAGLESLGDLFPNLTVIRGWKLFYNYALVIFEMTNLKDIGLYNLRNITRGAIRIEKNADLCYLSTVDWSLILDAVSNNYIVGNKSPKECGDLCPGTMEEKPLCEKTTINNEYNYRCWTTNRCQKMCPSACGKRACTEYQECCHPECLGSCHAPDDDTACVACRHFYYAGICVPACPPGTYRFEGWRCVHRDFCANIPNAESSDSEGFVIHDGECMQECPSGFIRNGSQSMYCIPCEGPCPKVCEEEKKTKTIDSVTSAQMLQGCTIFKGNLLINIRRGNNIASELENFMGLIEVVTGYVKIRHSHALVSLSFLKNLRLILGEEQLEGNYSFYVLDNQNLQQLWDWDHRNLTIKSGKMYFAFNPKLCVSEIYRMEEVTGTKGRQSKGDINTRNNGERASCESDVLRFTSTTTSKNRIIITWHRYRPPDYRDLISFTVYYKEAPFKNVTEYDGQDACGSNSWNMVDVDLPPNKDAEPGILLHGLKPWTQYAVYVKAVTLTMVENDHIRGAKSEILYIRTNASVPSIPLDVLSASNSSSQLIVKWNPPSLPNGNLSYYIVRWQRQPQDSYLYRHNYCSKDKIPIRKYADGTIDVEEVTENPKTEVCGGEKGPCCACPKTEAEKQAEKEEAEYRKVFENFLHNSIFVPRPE
Chain of guinea pig IGF-IR (beta, as listed by the source limits assumed, chain 2 of 2): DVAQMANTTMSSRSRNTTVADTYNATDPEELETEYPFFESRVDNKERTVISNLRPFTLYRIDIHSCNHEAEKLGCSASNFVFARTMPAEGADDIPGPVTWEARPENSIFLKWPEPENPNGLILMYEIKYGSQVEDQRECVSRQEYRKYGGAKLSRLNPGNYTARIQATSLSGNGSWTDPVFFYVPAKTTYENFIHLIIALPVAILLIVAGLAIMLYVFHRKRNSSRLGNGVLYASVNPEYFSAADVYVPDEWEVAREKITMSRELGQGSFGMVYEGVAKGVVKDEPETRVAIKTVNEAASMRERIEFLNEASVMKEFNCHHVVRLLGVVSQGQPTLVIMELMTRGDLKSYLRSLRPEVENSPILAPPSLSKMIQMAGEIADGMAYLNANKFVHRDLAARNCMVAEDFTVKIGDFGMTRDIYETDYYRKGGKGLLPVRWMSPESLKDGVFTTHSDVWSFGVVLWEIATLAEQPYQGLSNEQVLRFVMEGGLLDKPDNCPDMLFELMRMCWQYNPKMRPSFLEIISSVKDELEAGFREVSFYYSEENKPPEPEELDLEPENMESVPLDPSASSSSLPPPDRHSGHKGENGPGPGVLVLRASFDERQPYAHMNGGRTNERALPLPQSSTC
Chain of Rhesus IGF-IR (alpha, as listed by the source limits assumed, chain 1 of 2): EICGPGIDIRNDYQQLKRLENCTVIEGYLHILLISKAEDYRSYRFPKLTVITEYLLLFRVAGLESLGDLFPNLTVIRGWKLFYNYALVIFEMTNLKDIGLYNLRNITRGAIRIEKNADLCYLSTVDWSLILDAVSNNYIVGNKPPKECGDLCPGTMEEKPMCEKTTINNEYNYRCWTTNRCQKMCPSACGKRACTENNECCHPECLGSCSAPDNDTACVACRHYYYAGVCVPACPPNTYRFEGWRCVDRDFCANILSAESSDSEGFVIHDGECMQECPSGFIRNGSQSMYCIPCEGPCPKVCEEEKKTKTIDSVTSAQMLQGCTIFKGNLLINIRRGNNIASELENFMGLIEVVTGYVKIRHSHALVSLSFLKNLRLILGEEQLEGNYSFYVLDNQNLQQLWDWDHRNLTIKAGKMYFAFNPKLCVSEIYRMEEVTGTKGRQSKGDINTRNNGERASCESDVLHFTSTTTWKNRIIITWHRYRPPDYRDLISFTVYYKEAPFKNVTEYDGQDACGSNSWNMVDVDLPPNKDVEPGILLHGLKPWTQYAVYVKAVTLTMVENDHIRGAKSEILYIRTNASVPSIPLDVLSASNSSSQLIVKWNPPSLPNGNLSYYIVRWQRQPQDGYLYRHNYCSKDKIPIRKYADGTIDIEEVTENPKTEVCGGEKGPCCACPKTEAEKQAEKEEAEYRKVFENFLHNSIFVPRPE
Chain of Rhesus IGF-IR (beta, as listed by the source limits assumed, chain 2 of 2): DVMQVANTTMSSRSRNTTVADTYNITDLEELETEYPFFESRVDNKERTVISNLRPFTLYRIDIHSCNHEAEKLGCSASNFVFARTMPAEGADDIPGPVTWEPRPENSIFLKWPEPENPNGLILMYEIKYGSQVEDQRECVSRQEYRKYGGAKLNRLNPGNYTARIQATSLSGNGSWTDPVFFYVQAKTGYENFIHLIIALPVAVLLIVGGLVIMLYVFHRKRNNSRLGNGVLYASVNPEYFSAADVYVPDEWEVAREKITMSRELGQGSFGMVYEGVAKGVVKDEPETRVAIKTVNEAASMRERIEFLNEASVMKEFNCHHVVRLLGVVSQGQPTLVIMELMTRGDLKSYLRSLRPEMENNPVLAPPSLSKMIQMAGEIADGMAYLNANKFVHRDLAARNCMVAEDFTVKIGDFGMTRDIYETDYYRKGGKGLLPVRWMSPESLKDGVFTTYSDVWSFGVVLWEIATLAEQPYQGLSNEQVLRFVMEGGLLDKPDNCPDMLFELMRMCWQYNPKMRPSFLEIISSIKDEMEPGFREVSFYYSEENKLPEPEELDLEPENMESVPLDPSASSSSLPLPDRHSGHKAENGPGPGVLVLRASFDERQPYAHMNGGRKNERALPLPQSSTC

B1: anti-IGF-IR antibody 4.9.2 (antibody, human IgG2, V domains shown)
VH: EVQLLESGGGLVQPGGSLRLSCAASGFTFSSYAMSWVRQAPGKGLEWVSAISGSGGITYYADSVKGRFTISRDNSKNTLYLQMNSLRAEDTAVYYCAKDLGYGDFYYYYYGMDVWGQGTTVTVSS
VL: DIQMTQSPSSLSASVGDRVTITCRASQGIRSDLGWFQQKPGKAPKRLIYAASKLHRGVPSRFSGSGSGTEFTLTISRLQPEDFATYYCLQHNSYPLTFGGGTKVEIK
notes: Human IgG2 kappa; Biotinylated in the FACS assay
Consider B1, for which the “IC50 of inhibition of IGF-I-induced phosphorylation of IGF-IR (immunoprecipitation, Western blot with HRP-PY54)” value turned out to be 0.02 µg/mL with COS7 IGF-IR and 0.005 µg/mL with Rhesus IGF-IR. Also, in the experiment with human IGF-IR on cells [1], the “IC50 of inhibition of IGF-I-induced tyrosine phosphorylation of IGF-IR (ELISA, IGF-IR-transfected NIH-3T3 cells)” value was 0.0324 µg/mL. In addition, the binding result with canine IGF-IR, in the experiment with guinea pig IGF-IR and with rabbit IGF-IR was “no binding (tested: 1 µg/ml)” each time. In addition, the 50% inhibitory concentration (IC50) with human IGF-IR on cells [2] was determined as 0.1 µg/mL. For the same molecule, in the experiment with cynomologous IGF-IR, the Kd was 0.1 µg/mL.

B2: anti-IGF-IR antibody 2.13.2 (antibody, V domains shown)
VH: EVQLLESGGGLVQPGGSLRLSCTASGFTFSSYAMNWVRQAPGKGLEWVSAISGSGGTTFYADSVKGRFTISRDNSRTTLYLQMNSLRAEDTAVYYCAKDLGWSDSYYYYYGMDVWGQGTTVTVSS
VL: DIQMTQFPSSLSASVGDRVTITCRASQGIRNDLGWYQQKPGKAPKRLIYAASRLHRGVPSRFSGSGSGTEFTLTISSLQPEDFATYYCLQHNSYPCSFGQGTKLEIKR
notes: Fully human IgG2 kappa from a XenoMouse hybridoma; Biotinylated in the FACS assay
Consider B2, for which the figures for the “IC50 of inhibition of IGF-I-induced phosphorylation of IGF-IR (immunoprecipitation, Western blot with HRP-PY54)” value in the experiment with COS7 IGF-IR and in the experiment with Rhesus IGF-IR were 0.02 µg/mL and 0.005 µg/mL, respectively. In addition, the “IC50 of inhibition of IGF-I-induced tyrosine phosphorylation of IGF-IR (ELISA, IGF-IR-transfected NIH-3T3 cells)” value in the experiment with human IGF-IR on cells [1] came out at 0.0812 µg/mL. The binding result with canine IGF-IR, in the experiment with guinea pig IGF-IR and in the experiment with rabbit IGF-IR was “no binding (tested: 1 µg/ml)” each time. In the experiment with human IGF-IR on cells [2], this molecule had an IC50 of 0.18 µg/mL. The same molecule displayed a Kd with cynomologous IGF-IR of 0.1 µg/mL.

B3: anti-IGF-IR antibody 2.12.1 (antibody, V domains shown)
VH: QAQLVESGGGLVKPGGSLRLSCAASGFTFSDYYMSWIRQAPGKGLEWVSYISSSGSTRDYADSVKGRFTISRDNAKNSLYLQMNSLRAEDTAVYYCVRDGVETTFYYYYYGMDVWGQGTTVTVSS
VL: DIQMTQSPSSLSASVGDRVTFTCRASQDIRRDLGWYQQKPGKAPKRLIYAASRLQSGVPSRFSGSGSGTEFTLTISSLQPEDFATYYCLQHNNYPRTFGQGTEVEIIR
notes: as for B2
For the molecule B3, in the experiment with human IGF-IR on cells [1], the “IC50 of inhibition of IGF-I-induced tyrosine phosphorylation of IGF-IR (ELISA, IGF-IR-transfected NIH-3T3 cells)” value amounted to 0.172 µg/mL. The binding result in the experiment with canine IGF-IR, with guinea pig IGF-IR and with rabbit IGF-IR was “no binding (tested: 1 µg/ml)” in each case. For the same molecule, the IC50 with human IGF-IR on cells [2] came to 0.45 µg/mL.

B4: anti-IGF-IR antibody 2.14.3 (antibody, human IgG2, V domains shown)
VH: GPGLVKPSETLSLTCTVSGGSISNYYWSWIRQPAGKGLEWIGRIYTSGSPNYNPSLKSRVTMSVDTSKNQFSLKLNSVTAADTAVYYCAVTIFGVVIIFDYWGQGTLVTVSS
VL: SSLSASVGDRVTFTCRASQDIRRDLGWYQQKPGKAPKRLIYAASRLQSGVPSRFSGSGSGTEFTLTISSLQPEDFATYYCLQHNNYPRTFGQGTEVEIIR
Consider B4, for which the “IC50 of inhibition of IGF-I-induced tyrosine phosphorylation of IGF-IR (ELISA, IGF-IR-transfected NIH-3T3 cells)” value with human IGF-IR on cells [1] came to 0.325 µg/mL.
